Assay results: patent US20090118185A1 (UNIVERSITY OF ROCHESTER, published 2009)
Numbering of substitutions follows the chain as printed.

Key:
[1] = biological target: T1, 562(P4-P3′)336 factor VIII mutant (procofactor)
T1 chain 1: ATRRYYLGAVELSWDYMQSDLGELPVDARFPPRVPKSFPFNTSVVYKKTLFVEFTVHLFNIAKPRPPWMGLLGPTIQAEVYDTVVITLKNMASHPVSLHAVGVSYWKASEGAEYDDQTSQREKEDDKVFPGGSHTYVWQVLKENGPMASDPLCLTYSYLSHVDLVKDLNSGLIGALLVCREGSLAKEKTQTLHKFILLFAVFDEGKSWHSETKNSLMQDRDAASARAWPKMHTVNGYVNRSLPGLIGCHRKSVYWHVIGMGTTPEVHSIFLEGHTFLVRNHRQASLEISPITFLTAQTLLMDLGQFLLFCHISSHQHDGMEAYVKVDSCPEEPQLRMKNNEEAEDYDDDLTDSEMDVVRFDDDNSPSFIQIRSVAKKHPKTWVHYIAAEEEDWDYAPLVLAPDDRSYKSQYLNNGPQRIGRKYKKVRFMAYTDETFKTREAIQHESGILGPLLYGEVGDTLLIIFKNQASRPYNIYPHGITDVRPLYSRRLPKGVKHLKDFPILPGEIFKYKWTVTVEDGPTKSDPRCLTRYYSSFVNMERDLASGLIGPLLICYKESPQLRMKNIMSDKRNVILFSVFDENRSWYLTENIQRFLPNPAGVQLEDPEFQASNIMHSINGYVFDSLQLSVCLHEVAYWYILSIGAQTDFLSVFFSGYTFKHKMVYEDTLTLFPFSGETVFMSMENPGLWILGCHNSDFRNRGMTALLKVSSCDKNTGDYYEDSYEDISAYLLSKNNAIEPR
T1 chain 2: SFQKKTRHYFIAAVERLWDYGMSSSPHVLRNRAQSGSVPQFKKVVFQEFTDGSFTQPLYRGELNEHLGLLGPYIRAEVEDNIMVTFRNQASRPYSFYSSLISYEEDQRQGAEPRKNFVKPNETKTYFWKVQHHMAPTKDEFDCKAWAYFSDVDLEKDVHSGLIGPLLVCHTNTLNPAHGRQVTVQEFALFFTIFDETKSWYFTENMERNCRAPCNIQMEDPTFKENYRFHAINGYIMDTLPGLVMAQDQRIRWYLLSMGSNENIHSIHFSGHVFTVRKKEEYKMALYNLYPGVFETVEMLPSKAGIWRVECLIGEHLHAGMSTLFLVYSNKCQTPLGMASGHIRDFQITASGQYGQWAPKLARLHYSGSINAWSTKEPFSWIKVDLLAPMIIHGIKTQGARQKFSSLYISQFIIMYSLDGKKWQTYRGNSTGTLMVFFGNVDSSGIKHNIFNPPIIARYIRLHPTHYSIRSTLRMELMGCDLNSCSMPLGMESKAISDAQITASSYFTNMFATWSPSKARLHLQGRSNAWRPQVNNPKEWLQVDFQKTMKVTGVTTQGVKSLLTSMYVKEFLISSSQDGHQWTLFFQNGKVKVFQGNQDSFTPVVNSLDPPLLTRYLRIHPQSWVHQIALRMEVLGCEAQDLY

[2] = biological target: T2, 562(P4-P2)336 factor VIII mutant (procofactor)
T2 chain 1: T1 chain 1 with M563G, K564N, N565Q
T2 chain 2: T1 chain 2

[3] = biological target: T3, 336(P4-P3′)562 factor VIIIa mutant
T3 chain 1: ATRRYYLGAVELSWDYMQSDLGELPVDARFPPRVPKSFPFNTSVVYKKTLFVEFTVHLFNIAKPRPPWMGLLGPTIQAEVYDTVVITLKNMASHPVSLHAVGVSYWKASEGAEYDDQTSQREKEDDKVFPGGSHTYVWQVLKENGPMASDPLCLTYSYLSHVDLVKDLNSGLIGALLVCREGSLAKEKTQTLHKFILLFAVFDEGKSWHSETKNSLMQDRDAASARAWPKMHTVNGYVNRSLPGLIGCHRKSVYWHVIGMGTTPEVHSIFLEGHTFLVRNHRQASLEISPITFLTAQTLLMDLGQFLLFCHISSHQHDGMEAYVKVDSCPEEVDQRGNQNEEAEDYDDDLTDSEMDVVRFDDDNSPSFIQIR
T3 chain 2: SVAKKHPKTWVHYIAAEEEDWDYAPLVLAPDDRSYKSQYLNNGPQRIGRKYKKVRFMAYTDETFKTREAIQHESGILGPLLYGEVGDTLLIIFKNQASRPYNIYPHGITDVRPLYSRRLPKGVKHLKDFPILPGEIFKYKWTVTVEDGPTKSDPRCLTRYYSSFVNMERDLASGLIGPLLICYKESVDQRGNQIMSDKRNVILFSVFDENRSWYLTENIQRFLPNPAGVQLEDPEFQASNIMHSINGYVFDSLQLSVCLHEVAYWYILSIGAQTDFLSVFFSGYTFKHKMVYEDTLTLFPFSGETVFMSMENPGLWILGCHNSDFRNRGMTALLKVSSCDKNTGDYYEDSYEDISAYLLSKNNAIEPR
T3 chain 3: T1 chain 2

B1: human activated protein C (protein)
chain 1: ANSFLEELRHSSLERECIEEICDFEEAKEIFQNVDDTLAFWSKHVDGDQCLVLPLEHPCASLCCGHGTCIDGIGSFSCDCRSGWEGRFCQREVSFLNCSLDNGGCTHYCLEEVGWRRCSCAPGYKLGDDLLQCHPAVKFPCGRPWKRMEKKRSHL
chain 2: LIDGKMTRRGDSPWQVVLLDSKKKLACGAVLIHPSWVLTAAHCMDESKKLLVRLGEYDLRRWEKWELDLDIKEVFVHPNYSKSTTDNDIALLHLAQPATLSQTIVPICLPDSGLAERELNQAGQETLVTGWGYHSSREKEAKRNRTFVLNFIKIPVVPHNECSEVMSNMVSENMLCAGILGDRQDACEGDSGGPMVASFHGTWFLVGLVSWGEGCGLLHNYGVYTKVSRYLDWIHGHIRDKEAPQKSWAP
[1]
  A2 Cleavage (nM A2/min/nM APC) (nM A2/min/nM APC): 2.7
[2]
  A2 Cleavage (nM A2/min/nM APC) (nM A2/min/nM APC): 0.6
[3]
  A1 Cleavage (nM A1/min/nM APC) (nM A1/min/nM APC): 0.1
  A2 Cleavage (nM A2/min/nM APC) (nM A2/min/nM APC): 0.05
  fold reduction of A1 subunit cleavage rate relative to WT: reduced by ˜100-fold relative to WT
